Assay results published in patent publication US20230382991A1 (COMMISSARIAT A L ENERGIE ATOMIQUE ET AUX ENERGIES …, published 2023).

Key:
[1] = target: T1, cynomolgus macaque LILRB1.1-Fc fusion protein (cynomolgus macaque; human); test: biolayer interferometry (ForteBio), mAb on anti-mouse Fc sensor, LILR-Fc in solution, 1:1 global fit
T1 construct: extracellular domain; Produced in HEK293T cells; also called mLILRB1.1; mLILRB1.1-Fc

[2] = target: T2, cynomolgus macaque LILRB1.2-Fc fusion protein (cynomolgus macaque; human); test: as above
T2 construct: extracellular domain; Produced in HEK293T cells; also called mLILRB1.2; mLILRB1.2-Fc

[3] = target: T3, cynomolgus macaque LILRB2.1-Fc fusion protein (cynomolgus macaque; human); test: as above
T3 construct: extracellular domain; Produced in HEK293T cells; also called mLILRB2.1; mLILRB2.1-Fc

[4] = target: T4, cynomolgus macaque LILRB2.2-Fc fusion protein (cynomolgus macaque; human); test: as above
T4 construct: extracellular domain; Produced in HEK293T cells; also called mLILRB2.2; mLILRB2.2-Fc

[5] = target: T5, recombinant human LILRA1-Fc fusion protein (human, UniProt O75019 17-461); test: as above
T5 construct: hLILR-Fc purchased from R&D Systems; also called hLILRA1; hLILRA1-Fc; not shown: Fc part of the fusion bought from R&D Systems; captured by anti-human immunoglobulin
T5 sequence (O75019 17-461): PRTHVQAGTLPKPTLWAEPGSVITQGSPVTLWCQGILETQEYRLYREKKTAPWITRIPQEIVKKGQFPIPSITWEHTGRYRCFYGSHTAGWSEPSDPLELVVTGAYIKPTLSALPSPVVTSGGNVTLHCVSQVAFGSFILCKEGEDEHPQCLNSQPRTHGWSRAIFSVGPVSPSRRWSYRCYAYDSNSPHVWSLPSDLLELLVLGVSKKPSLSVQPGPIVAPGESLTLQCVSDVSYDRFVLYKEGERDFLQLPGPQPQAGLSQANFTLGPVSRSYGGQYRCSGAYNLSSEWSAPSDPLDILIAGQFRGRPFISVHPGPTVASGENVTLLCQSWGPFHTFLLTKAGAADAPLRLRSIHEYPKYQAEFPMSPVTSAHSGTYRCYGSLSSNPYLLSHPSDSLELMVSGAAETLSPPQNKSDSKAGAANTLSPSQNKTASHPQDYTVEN

[6] = target: T6, recombinant human LILRA3-Fc fusion protein (human, UniProt Q8N6C8 24-439); test: as above
T6 construct: hLILR-Fc purchased from R&D Systems; also called hLILRA3; hLILRA3-Fc; not shown: Fc part of the fusion bought from R&D Systems
T6 sequence (Q8N6C8 24-439): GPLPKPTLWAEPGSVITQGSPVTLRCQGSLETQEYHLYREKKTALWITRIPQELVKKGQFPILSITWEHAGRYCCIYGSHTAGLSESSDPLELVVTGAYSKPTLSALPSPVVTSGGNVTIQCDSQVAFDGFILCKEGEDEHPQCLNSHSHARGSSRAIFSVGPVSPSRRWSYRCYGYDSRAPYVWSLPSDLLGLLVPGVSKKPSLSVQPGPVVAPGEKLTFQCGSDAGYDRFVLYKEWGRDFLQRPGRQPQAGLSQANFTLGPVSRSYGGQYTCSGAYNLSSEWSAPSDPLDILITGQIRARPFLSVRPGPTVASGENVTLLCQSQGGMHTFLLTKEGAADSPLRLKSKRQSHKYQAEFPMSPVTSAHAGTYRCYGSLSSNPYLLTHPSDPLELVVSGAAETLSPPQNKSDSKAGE

[7] = target: T7, recombinant human LILRB1-Fc fusion protein (human, UniProt Q8NHL6 24-458); test: as above
T7 construct: hLILR-Fc purchased from R&D Systems; also called hLILRB1-Fc; hLILRB1; not shown: Fc part of the fusion bought from R&D Systems; detected with anti-human IgG
T7 sequence (Q8NHL6 24-458): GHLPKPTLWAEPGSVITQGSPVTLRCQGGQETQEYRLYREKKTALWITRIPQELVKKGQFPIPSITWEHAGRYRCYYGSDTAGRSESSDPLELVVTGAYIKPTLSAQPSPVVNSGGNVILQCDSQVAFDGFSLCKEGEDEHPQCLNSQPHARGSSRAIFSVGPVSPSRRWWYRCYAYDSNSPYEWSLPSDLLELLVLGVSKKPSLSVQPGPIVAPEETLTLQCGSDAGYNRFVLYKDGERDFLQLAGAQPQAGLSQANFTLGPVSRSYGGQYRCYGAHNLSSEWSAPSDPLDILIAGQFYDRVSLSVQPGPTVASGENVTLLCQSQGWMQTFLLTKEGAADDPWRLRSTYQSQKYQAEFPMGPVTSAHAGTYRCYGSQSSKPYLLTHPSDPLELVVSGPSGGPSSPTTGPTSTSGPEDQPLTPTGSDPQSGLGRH

[8] = target: T8, recombinant human LILRA2-Fc fusion protein (human, UniProt Q8N149 24-449); test: EIA on hLILR-Fc captured by goat anti-human Ig on the plate; AChE-labelled goat anti-mouse antibody; absorbance (axis printed 'DO 141nm'); no blank curve on the sheet
T8 construct: not shown: Fc part of the fusion bought from R&D Systems
T8 sequence (Q8N149 24-449): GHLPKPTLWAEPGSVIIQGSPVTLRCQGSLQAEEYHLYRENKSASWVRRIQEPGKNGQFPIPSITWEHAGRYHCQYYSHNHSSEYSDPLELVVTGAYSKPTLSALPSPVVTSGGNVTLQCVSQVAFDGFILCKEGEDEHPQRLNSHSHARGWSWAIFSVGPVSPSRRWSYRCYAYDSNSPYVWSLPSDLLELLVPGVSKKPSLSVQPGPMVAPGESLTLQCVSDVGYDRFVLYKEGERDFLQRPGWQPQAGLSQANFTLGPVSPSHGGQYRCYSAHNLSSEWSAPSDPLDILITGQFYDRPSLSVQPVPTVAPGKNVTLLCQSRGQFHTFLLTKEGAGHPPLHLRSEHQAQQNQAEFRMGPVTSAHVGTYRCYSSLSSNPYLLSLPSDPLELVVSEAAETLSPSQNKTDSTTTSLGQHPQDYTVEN

[9] = target: T9, recombinant human LILRA4-Fc fusion protein (human, UniProt P59901 24-446); test: as above
T9 construct: not shown: Fc part of the fusion bought from R&D Systems
T9 sequence (P59901 24-446): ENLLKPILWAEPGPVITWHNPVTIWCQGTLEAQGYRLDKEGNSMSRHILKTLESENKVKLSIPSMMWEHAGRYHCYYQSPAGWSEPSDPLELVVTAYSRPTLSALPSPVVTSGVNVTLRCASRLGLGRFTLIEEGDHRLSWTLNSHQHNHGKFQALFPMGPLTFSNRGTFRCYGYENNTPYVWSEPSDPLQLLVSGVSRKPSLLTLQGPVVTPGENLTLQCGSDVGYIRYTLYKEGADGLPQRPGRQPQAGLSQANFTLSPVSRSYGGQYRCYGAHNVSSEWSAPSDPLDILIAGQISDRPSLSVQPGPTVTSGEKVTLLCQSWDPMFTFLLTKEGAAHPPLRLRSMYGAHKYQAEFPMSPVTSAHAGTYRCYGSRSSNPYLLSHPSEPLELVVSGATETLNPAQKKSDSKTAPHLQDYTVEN

[10] = target: T10, recombinant human LILRA5-Fc fusion protein (human, UniProt A6NI73 42-268); test: as above
T10 construct: not shown: Fc part of the fusion bought from R&D Systems
T10 sequence (A6NI73 42-268): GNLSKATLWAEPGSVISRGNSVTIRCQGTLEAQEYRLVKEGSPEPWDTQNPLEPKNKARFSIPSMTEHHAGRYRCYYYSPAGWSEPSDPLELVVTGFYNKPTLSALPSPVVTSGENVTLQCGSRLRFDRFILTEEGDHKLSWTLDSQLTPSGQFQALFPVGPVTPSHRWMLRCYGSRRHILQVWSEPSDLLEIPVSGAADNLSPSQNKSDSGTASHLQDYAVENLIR

[11] = target: T11, recombinant human LILRB3-Fc fusion protein (human, UniProt O75022 24-443); test: as above
T11 construct: not shown: Fc part of the fusion bought from R&D Systems
T11 sequence (O75022 24-443): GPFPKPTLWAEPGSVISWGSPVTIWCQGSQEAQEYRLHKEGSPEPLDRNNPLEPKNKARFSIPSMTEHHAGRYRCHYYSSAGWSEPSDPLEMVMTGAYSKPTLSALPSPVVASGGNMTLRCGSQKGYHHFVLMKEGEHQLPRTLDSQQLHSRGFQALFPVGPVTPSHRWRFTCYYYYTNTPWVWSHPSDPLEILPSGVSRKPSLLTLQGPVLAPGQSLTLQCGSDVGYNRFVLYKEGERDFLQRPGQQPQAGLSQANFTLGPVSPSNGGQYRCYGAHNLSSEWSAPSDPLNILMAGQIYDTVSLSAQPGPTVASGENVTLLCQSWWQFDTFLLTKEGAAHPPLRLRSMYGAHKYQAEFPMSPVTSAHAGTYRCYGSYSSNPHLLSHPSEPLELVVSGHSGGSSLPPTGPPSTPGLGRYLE

[12] = target: T12, recombinant human LILRB4-Fc fusion protein (human, UniProt Q8NHJ6 22-259); test: as above
T12 construct: not shown: Fc part of the fusion bought from R&D Systems

[13] = target: T13, recombinant human LILRB5-Fc fusion protein (human, UniProt O75023 24-458); test: as above
T13 construct: not shown: Fc part of the fusion bought from R&D Systems
T13 sequence (O75023 24-458): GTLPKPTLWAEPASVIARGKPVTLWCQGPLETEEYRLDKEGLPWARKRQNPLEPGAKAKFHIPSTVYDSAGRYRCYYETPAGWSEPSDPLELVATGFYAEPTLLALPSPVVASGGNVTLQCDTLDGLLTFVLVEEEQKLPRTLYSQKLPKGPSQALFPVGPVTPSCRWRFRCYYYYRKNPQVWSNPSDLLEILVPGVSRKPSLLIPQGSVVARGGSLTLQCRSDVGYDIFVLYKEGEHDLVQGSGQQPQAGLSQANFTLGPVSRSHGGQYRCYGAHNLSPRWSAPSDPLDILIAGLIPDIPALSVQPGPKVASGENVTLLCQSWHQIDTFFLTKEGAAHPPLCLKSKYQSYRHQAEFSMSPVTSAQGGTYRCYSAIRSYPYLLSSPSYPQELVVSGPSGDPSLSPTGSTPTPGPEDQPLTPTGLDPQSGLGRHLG

[14] = target: T14, recombinant human LILRB2-Fc fusion protein (human, UniProt Q8N423 22-457); test: biolayer interferometry (ForteBio), mAb on anti-mouse Fc sensor, LILR-Fc in solution, 1:1 global fit
T14 construct: hLILR-Fc purchased from R&D Systems; also called hLILRB2-Fc; hLILRB2; not shown: Fc part of the fusion bought from R&D Systems; detected with anti-human IgG
T14 sequence (Q8N423 22-457): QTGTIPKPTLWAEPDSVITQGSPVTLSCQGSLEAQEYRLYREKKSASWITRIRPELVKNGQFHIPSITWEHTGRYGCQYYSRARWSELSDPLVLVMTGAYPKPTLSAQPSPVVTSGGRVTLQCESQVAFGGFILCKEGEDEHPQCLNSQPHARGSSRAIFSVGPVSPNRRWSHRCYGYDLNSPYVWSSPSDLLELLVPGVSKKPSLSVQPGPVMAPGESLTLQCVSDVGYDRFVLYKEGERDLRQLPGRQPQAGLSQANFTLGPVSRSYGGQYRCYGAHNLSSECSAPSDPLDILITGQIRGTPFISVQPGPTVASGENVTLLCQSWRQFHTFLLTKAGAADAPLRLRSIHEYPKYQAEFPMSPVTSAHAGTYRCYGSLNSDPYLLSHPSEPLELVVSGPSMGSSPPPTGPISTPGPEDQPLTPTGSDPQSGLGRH

[15] = target: T15, human LILRB1 expressed on stably transduced CHO cells (human, UniProt Q8NHL6 24-650); test: flow cytometry, same method as FIG. 1B (CHO cells expressing human LILRB1)
T15 construct: whole, on cells; also called hLILRB1; CHO hLILRB1 cell line
T15 sequence (Q8NHL6 24-650): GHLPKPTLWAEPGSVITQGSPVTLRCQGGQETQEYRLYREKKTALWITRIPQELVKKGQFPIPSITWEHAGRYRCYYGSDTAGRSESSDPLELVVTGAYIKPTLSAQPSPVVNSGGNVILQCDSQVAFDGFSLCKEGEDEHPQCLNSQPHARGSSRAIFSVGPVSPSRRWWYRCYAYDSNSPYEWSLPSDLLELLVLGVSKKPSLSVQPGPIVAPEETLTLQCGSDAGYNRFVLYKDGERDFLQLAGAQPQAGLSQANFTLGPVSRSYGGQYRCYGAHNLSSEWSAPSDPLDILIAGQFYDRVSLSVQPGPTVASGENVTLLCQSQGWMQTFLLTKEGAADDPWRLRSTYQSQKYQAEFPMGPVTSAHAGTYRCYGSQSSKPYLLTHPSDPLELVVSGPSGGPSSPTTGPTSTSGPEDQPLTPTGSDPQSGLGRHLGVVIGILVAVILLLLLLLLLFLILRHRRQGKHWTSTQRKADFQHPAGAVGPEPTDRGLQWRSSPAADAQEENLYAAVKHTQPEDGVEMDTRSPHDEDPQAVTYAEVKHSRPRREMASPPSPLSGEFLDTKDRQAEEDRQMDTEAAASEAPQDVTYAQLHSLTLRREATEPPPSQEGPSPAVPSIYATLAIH

B1: B1.2.2 monoclonal antibody (antibody, V domains shown)
VH: EVQLVESGGGLVKPGGSLKLSCAASGFTFSDYGMHWVRQAPEKGLEWVAYISSGSSTSYYADTVKGRFTISRDDAKNTLFLQMTSLRSEDTAMYYCARPGSNWDVYYAMDYWGQGTSVTVSS
VL: DIVLTQSPASLAVSLGQRATISCRASQSVSTSSYSYMHWYQQKPGQPPKLLIKNASNLESGVPARFSGSGSGTDFTLNIHPVEEEDTATYYCQHSWEIPFTFGGGTKLEIK
notes: Mouse monoclonal antibody purified from hybridoma supernatant (immunisation with mLILRB1.2-Fc); also called B1.2.2 mAb; clone 20G10
Question: Which results are given for B1?
Answer: Kd [1]: 3.6 nM; Kd [2]: 0.12 nM; Kd [3]: 0.48 nM; Kd [4]: 0.071 nM; Kd [5]: 0.37 nM; Kd [6]: 3.2 nM; Kd [7]: 0.87 nM; binding result [8]: no binding (tested: 10 µg/ml); binding result [9]: no binding (tested: 10 µg/ml); binding result [10]: no binding (tested: 10 µg/ml); binding result [11]: no binding (tested: 10 µg/ml); binding result [12]: no binding (tested: 10 µg/ml); binding result [13]: no binding (tested: 10 µg/ml)

B2: B1.2.1 monoclonal antibody (antibody, V domains shown)
VH: EVQLVESGGGLVQPKGSLKLSCAASGFTFNTHAMHWVRQAPGKGLEWVARIRSKSSNYATFYADSVKDRFTISRDDSQSMLYLQMNNLKTEDTAIYFCVMVYYGNSPYYSMDYWGQGTSVTVSS
VL: NIVMTQSPKSMSMSVGERVTLSCKASENVGTYVSWYQQKPEQSPKLLIYGASNRYTGVPDRFTGSGSATDFTLIINNIQAEDLADYHCGQSYSSPLTFGAGTKLELK
notes: Mouse monoclonal antibody purified from hybridoma supernatant (immunisation with mLILRB1.2-Fc); also called B1.2.1 mAb
Question: For B2, which Kd [14] is on record?
Answer: 0.14 nM

Question: And the Kd [1]?
Answer: 0.0039 nM

Question: What about the Kd [2] of the same binder?
Answer: 0.014 nM

Question: What about the Kd [4] of the same binder?
Answer: 2.9 nM

Question: What about the Kd [5] of the same binder?
Answer: 0.73 nM

Question: What about the Kd [6] of the same binder?
Answer: 1.3 nM

Question: What about the Kd [7] of the same binder?
Answer: 0.53 nM

Question: Does B2 bind [8]?
Answer: no binding (tested: 10 µg/ml)

Question: Does B2 bind [9]?
Answer: no binding (tested: 10 µg/ml)

Question: Does B2 bind [10]?
Answer: no binding (tested: 10 µg/ml)

Question: Does B2 bind [11]?
Answer: no binding (tested: 10 µg/ml)

Question: Does B2 bind [12]?
Answer: no binding (tested: 10 µg/ml)

Question: Does B2 bind [13]?
Answer: no binding (tested: 10 µg/ml)

B3: BF14 humanized antagonist antibody of Family AB2 (antibody, V domains shown)
VH: QVQLVESGGGVVQPGRSLRLSCAASGFTFSDYGMHWVRQAPGKGLEWVAYISSGSSTSYYADTVKGRFTISRDDSKNTLYLQMNSLRAEDTAVYYCARPGSNWDVYYAMDYWGQGTLVTVSS
VL: DIQLTQSPSSLSASVGDRVTITCRASQSVSTSSYSYMHWYQQKPGKAPKLLIKNASNLESGVPSRFSGSGSGTDFTLTISSLQPEDFATYYCQHSWEIPFTFGPGTKVDIK
Question: Does B3 bind [15]?
Answer: binds
